Measured values as given in US20230212587A1, “Mutant Hydroxyphenylpyruvate Dioxygenase Polypeptide, Encoding Gene Thereof and Use Therefor” (Beijing Dabeinong Biotechnology Co., Ltd., priority 2019, published 2023).

Tested on: Arabidopsis thaliana T1 plants
Experiment: Topramezone tolerance of transgenic Arabidopsis thaliana T1 plants (pesticide damage grade by bleached leaf area, score, resistance evaluation)
Format: in vivo
Conditions: HPPDs from different species, 7 DAT; for Classification and statistics of pesticide damage grade Grade 0 / Classification and statistics of pesticide damage grade Grade 1 / Classification and statistics of pesticide damage grade Grade 2 / Classification and statistics of pesticide damage grade Grade 3: number of plants (of 16) in this grade; for Scores: score for pesticide damage 0-100
Summary of the method: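 Herbicide tolerance was judged per plant on a bleaching scale (grade 0 no bleaching to grade 3 fully bleached) 7 DAT. Topramezone doses were 0, 25, 50 and 100 g ai/ha on 18-day-old T1 and wild-type plants.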

| Molecule | Classification and statistics of pesticide damage grade Grade 0 (topramezone 25 g ai/ha (1x)) | Classification and statistics of pesticide damage grade Grade 1 (topramezone 25 g ai/ha (1x)) | Classification and statistics of pesticide damage grade Grade 2 (topramezone 25 g ai/ha (1x)) | Classification and statistics of pesticide damage grade Grade 3 (topramezone 25 g ai/ha (1x)) | Classification and statistics of pesticide damage grade Grade 0 (topramezone 100 g ai/ha (4x)) | Classification and statistics of pesticide damage grade Grade 1 (topramezone 100 g ai/ha (4x)) | Classification and statistics of pesticide damage grade Grade 2 (topramezone 100 g ai/ha (4x)) | Classification and statistics of pesticide damage grade Grade 3 (topramezone 100 g ai/ha (4x)) | Scores (topramezone 25 g ai/ha (1x)) | Scores (topramezone 100 g ai/ha (4x)) | Resistance evaluation (topramezone 25 g ai/ha (1x)) | Resistance evaluation (topramezone 100 g ai/ha (4x)) |
| --- | --- | --- | --- | --- | --- | --- | --- | --- | --- | --- | --- | --- |
| SbHPPD-02: native Sorghum bicolor HPPD, SEQ ID NO: 63 (protein, Sorghum bicolor; SbHPPD Amino Acid Sequence) MPPTPTTAAATGAAVAAASAEQAAFRLVGHRNFVRVNPRSDRFHTLAFHHVELWCADAASAAGRFSFGLGAPLAARSDLSTGNTAHASLLLRSGALAFLFTAPYAHGADAATASLPSFSAAEARRFAADHGLAVRAVALRVADAEDAFRASVAAGARPAFEPVELGLGFRLAEVELYGDVVLRYVSYPDDADASFLPGFVGVTSPGAADYGLRRFDHIVGNVPELAPAAAYFAGFTGFHEFAEFTAEDVGTTESGLNSMVLANNAENVLLPLNEPVHGTKRRSQIQTYLDHHGGPGVQHMALASDDVLRTLREMQARSAMGGFEFMAPPAPEYYDGVRRRAGDVLTEAQIKECQELGVLVDRDDQGVLLQIFTKPVGDRPTLFLEIIQRIGCMEKDEKGQEYQKGGCGGFGKGNFSQLFKSIEDYEKSLEAKQAAAAQGS | 0 | 0 | 0 | 16 | 0 | 0 | 0 | 16 | 100 | 100 | non-resistant (non-resistant plants (scores 68-100)) | non-resistant (non-resistant plants (scores 68-100)) |
| SbHPPDm-F372A-02: Sorghum bicolor HPPD mutant F372A, SEQ ID NO: 66 (protein, SbHPPDm-F372A Amino Acid Sequence) MPPTPTTAAATGAAVAAASAEQAAFRLVGHRNFVRVNPRSDRFHTLAFHHVELWCADAASAAGRFSFGLGAPLAARSDLSTGNTAHASLLLRSGALAFLFTAPYAHGADAATASLPSFSAAEARRFAADHGLAVRAVALRVADAEDAFRASVAAGARPAFEPVELGLGFRLAEVELYGDVVLRYVSYPDDADASFLPGFVGVTSPGAADYGLRRFDHIVGNVPELAPAAAYFAGFTGFHEFAEFTAEDVGTTESGLNSMVLANNAENVLLPLNEPVHGTKRRSQIQTYLDHHGGPGVQHMALASDDVLRTLREMQARSAMGGFEFMAPPAPEYYDGVRRRAGDVLTEAQIKECQELGVLVDRDDQGVLLQIATKPVGDRPTLFLEIIQRIGCMEKDEKGQEYQKGGCGGFGKGNFSQLFKSIEDYEKSLEAKQAAAAQGS | 16 | 0 | 0 | 0 | 4 | 4 | 8 | 0 | 0 | 42 | highly resistant_ (highly resistant plants (scores 0-15)) | poorly resistant (poorly resistant plants (scores 34-67)) |
| OsHPPD-02: native Oryza sativa HPPD, SEQ ID NO: 69 (protein, listed as Oryza sativa, OsHPPD Amino Acid Sequence) MPPTPTPTATTGAVSAAAAAGENAGFRLVGHRRFVRANPRSDRFQALAFHHVELWCADAASAAGRFAFALGAPLAARSDLSTGNSAHASLLLRSASVAFLFTAPYGGDHGVGADAATTASIPSFSPGAARRFAADHGLAVHAVALRVADAADAFRASVAAGARPAFQPADLGGGFGLAEVELYGDVVLRFVSHPDGADAPFLPGFEGVSNPGAVDYGLRRFDHVVGNVPELAPVAAYISGFTGFHEFAEFTAEDVGTAESGLNSVVLANNAETVLLPLNEPVHGTKRRSQIQTYLDHHGGPGVQHIALASDDVLGTLREMRARSAMGGFEFLAPPPPNYYDGVRRRAGDVLSEEQINECQELGVLVDRDDQGVLLQIFTKPVGDRPTFFLEMIQRIGCMEKDESGQEYQKGGCGGFGKGNFSELFKSIEEYEKSLEAKQAPTVQGS | 0 | 0 | 0 | 16 | 0 | 0 | 0 | 16 | 100 | 100 | non-resistant (non-resistant plants (scores 68-100)) | non-resistant (non-resistant plants (scores 68-100)) |
| OsHPPDm-F372A-02: Oryza sativa HPPD mutant F372A, SEQ ID NO: 72 (protein, OsHPPDm-F372A Amino Acid Sequence) MPPTPTPTATTGAVSAAAAAGENAGFRLVGHRRFVRANPRSDRFQALAFHHVELWCADAASAAGRFAFALGAPLAARSDLSTGNSAHASLLLRSASVAFLFTAPYGGDHGVGADAATTASIPSFSPGAARRFAADHGLAVHAVALRVADAADAFRASVAAGARPAFQPADLGGGFGLAEVELYGDVVLRFVSHPDGADAPFLPGFEGVSNPGAVDYGLRRFDHVVGNVPELAPVAAYISGFTGFHEFAEFTAEDVGTAESGLNSVVLANNAETVLLPLNEPVHGTKRRSQIQTYLDHHGGPGVQHIALASDDVLGTLREMRARSAMGGFEFLAPPPPNYYDGVRRRAGDVLSEEQINECQELGVLVDRDDQGVLLQIATKPVGDRPTFFLEMIQRIGCMEKDESGQEYQKGGCGGFGKGNFSELFKSIEEYEKSLEAKQAPTVQGS | 8 | 8 | 0 | 0 | 0 | 0 | 0 | 16 | 17 | 100 | moderately resistant (moderately resistant plants (scores 16-33)) | non-resistant (non-resistant plants (scores 68-100)) |
| AtHPPD: native Arabidopsis thaliana HPPD, SEQ ID NO: 23 (protein, listed as Arabidopsis thaliana, Arabidopsis thaliana HPPD Amido Acid Sequence) MGHQNAAVSENQNHDDGAASSPGFKLVGFSKFVRKNPKSDKFKVKRFHHIEFWCGDATNVARRFSWGLGMRFSAKSDLSTGNMVHASYLLTSGDLRFLFTAPYSPSLSAGEIKPTTTASIPSFDHGSCRSFFSSHGLGVRAVAIEVEDAESAFSISVANGAIPSSPPIVLNEAVTIAEVKLYGDVVLRYVSYKAEDTEKSEFLPGFERVEDASSFPLDYGIRRLDHAVGNVPELGPALTYVAGFTGFHQFAEFTADDVGTAESGLNSAVLASNDEMVLLPINEPVHGTKRKSQIQTYLEHNEGAGLQHLALMSEDIFRTLREMRKRSSIGGFDFMPSPPPTYYQNLKKRVGDVLSDDQIKECEELGILVDRDDQGTLLQIFTKPLGDRPTIFIEIIQRVGCMMKDEEGKAYQSGGCGGFGKGNFSELFKSIEEYEKTLEAKQLVG | 0 | 0 | 0 | 16 | 0 | 0 | 0 | 16 | 100 | 100 | non-resistant (non-resistant plants (scores 68-100)) | non-resistant (non-resistant plants (scores 68-100)) |
| AtHPPDm-F372A: Arabidopsis thaliana HPPD mutant F372A, SEQ ID NO: 25 (protein, AtHPPDm-F372A Amino Acid Sequence) MGHQNAAVSENQNHDDGAASSPGFKLVGFSKFVRKNPKSDKFKVKRFHHIEFWCGDATNVARRFSWGLGMRFSAKSDLSTGNMVHASYLLTSGDLRFLFTAPYSPSLSAGEIKPTTTASIPSFDHGSCRSFFSSHGLGVRAVAIEVEDAESAFSISVANGAIPSSPPIVLNEAVTIAEVKLYGDVVLRYVSYKAEDTEKSEFLPGFERVEDASSFPLDYGIRRLDHAVGNVPELGPALTYVAGFTGFHQFAEFTADDVGTAESGLNSAVLASNDEMVLLPINEPVHGTKRKSQIQTYLEHNEGAGLQHLALMSEDIFRTLREMRKRSSIGGFDFMPSPPPTYYQNLKKRVGDVLSDDQIKECEELGILVDRDDQGTLLQIATKPLGDRPTIFIEIIQRVGCMMKDEEGKAYQSGGCGGFGKGNFSELFKSIEEYEKTLEAKQLVG | 4 | 4 | 8 | 0 | 0 | 0 | 4 | 12 | 42 | 92 | poorly resistant (poorly resistant plants (scores 34-67)) | non-resistant (non-resistant plants (scores 68-100)) |
